Measured values as given in patent US20080131908A1 (Genentech, published 2008).

Assays:
[1] = molecular target: human Notch3 (full-length) (human) (UniProt Q9UM47); experiment: FACS on Sup-T1 cells (native Notch3)
[2] = molecular target: human Notch3 (full-length) (human) (UniProt Q9UM47); experiment: FACS on 293T cells transiently transfected with Notch3/Hygromycin
[3] = molecular target: T1, Notch3-LD/Fc fusion protein (human, UniProt Q9UM47 1378-1640); experiment: ELISA, hybridoma supernatant on coated Notch3-LD/Fc (0.1 ug/ml); control beside 256A-13
T1 construct: A signal peptide was linked to the N-terminus (not identified, left out); not described; also called Notch3/Fc fusion protein
T1 sequence: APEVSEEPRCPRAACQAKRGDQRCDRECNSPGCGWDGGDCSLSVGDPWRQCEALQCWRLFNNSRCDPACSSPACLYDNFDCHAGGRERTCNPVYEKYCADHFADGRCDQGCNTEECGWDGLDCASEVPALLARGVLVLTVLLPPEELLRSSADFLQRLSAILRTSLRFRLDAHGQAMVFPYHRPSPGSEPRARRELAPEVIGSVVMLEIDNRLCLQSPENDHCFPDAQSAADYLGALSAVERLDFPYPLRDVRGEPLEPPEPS

[4] = molecular target: Notch3-EGF/Fc fusion protein (human) (UniProt Q9UM47); experiment: ELISA, hybridoma supernatant on coated Notch3-EGF/Fc (0.1 ug/ml); control beside 255A-71
Sequence of Notch3-EGF/Fc fusion protein (human) (Q9UM47 43-1377): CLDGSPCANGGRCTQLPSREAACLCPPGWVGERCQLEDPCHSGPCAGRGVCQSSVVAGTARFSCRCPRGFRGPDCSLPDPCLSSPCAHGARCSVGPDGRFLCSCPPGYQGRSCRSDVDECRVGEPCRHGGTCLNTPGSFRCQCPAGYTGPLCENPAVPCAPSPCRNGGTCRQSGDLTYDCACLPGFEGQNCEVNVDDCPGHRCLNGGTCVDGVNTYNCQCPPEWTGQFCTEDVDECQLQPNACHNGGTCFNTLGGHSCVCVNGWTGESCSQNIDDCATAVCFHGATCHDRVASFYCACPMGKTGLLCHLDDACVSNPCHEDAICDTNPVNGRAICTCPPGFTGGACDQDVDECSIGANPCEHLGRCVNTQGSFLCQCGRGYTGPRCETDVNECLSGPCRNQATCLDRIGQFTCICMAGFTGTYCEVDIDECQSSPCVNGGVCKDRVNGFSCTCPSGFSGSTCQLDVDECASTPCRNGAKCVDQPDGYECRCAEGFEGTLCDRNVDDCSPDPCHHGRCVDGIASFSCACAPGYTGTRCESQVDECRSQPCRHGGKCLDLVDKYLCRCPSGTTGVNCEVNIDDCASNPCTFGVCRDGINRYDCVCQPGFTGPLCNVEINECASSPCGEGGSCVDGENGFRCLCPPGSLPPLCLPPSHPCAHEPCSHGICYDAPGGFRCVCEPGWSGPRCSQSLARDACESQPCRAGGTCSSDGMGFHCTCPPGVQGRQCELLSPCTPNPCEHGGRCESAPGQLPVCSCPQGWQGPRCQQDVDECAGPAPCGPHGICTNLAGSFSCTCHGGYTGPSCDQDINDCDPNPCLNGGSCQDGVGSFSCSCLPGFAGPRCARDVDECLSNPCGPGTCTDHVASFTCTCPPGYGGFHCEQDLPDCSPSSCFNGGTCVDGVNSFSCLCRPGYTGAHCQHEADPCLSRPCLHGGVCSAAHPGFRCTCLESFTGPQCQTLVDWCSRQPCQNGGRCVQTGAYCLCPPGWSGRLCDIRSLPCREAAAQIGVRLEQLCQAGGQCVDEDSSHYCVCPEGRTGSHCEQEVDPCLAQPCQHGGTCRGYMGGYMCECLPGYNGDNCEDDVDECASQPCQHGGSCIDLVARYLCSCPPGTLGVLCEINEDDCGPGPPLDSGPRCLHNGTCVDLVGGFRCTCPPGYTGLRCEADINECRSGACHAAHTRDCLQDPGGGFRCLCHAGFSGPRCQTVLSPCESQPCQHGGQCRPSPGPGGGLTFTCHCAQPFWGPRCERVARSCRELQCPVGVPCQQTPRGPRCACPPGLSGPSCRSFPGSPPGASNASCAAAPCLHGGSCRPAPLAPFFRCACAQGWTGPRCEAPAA

[5] = molecular target: Notch3-EGF/Fc fusion protein (human) (UniProt Q9UM47); experiment: ELISA, hybridoma supernatant on coated Notch3-EGF/Fc (0.1 ug/ml); control beside 255A-77
[6] = molecular target: T1, Notch3-LD/Fc fusion protein; experiment: Western blot, denaturing conditions
Protocol: Western blot was performed to assess anti-Notch3 mAbs binding activity to Notch3 under denaturing condition. For this purpose, purified Notch3-EGF/Fc and Notch3-LD/Fc fusion proteins were combined with protein loading buffer (BioRad, Hercules, Calif.). Protein samples were also prepared from the transiently or stably transfected cells described in Example 1, which were harvested from culture dishes, washed once with phosphate buffered saline (PBS), resuspended in deionized water, and heated at 100° C. for 10 minutes after adding equal volume of 2× protein sample loading buffer (BioRad, Hercules, Calif.). All samples were separated by electrophoresis in a 4-15% gradient SDS-PAGE (BioRad, Hercules, Calif.). The proteins were transferred from gel to PVDF membrane (BioRad, Hercules, Calif.) and anti-Notch3 mAbs were applied to the Western blot membrane as the primary detection antibody. An HRP-conjugated secondary antibody was used for detection and the signal generated using a Supersignal Chemiluminescent Substrate (Pierce, Rockford, Ill.) as described above.

[7] = molecular target: T2, Notch3-LDTM/V5 (human, UniProt Q9UM47 1378-1664, limits assumed); experiment: cell-based FMAT assay on cells expressing Notch3-LDTM
T2 construct: not shown: V5 tag at the C-terminus
T2 sequence: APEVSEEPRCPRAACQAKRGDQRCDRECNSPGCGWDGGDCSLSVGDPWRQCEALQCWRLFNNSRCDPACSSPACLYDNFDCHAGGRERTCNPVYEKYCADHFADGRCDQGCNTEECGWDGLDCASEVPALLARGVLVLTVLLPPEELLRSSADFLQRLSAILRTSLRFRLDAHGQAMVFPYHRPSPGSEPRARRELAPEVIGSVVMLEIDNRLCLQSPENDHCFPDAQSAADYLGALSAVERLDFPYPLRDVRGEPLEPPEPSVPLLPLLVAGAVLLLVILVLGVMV
Protocol: Cell-based antibody-binding was assessed using FMAT™ 8100 HTS System (Applied Biosystems, Foster City, Calif.) and protocol provided by the manufacturer with some modification. Cell lines expressing Notch3 were seeded in 96-well plates at a density of 30,000-50,000 cells per well. After 20-24 hours, anti-Notch3 mAbs and 1×PBS reaction buffer were added to the wells and incubated for one hour at 37° C. Cy-5-conjugated anti-mouse IgG antibody was added to the wells after removal of primary antibodies. The fluorescent intensity of bound antibody was measured by FMAT™ 8100 HTS System.

Sequence of human Notch3 (full-length) (human) (Q9UM47 40-2321 A2223V limits assumed): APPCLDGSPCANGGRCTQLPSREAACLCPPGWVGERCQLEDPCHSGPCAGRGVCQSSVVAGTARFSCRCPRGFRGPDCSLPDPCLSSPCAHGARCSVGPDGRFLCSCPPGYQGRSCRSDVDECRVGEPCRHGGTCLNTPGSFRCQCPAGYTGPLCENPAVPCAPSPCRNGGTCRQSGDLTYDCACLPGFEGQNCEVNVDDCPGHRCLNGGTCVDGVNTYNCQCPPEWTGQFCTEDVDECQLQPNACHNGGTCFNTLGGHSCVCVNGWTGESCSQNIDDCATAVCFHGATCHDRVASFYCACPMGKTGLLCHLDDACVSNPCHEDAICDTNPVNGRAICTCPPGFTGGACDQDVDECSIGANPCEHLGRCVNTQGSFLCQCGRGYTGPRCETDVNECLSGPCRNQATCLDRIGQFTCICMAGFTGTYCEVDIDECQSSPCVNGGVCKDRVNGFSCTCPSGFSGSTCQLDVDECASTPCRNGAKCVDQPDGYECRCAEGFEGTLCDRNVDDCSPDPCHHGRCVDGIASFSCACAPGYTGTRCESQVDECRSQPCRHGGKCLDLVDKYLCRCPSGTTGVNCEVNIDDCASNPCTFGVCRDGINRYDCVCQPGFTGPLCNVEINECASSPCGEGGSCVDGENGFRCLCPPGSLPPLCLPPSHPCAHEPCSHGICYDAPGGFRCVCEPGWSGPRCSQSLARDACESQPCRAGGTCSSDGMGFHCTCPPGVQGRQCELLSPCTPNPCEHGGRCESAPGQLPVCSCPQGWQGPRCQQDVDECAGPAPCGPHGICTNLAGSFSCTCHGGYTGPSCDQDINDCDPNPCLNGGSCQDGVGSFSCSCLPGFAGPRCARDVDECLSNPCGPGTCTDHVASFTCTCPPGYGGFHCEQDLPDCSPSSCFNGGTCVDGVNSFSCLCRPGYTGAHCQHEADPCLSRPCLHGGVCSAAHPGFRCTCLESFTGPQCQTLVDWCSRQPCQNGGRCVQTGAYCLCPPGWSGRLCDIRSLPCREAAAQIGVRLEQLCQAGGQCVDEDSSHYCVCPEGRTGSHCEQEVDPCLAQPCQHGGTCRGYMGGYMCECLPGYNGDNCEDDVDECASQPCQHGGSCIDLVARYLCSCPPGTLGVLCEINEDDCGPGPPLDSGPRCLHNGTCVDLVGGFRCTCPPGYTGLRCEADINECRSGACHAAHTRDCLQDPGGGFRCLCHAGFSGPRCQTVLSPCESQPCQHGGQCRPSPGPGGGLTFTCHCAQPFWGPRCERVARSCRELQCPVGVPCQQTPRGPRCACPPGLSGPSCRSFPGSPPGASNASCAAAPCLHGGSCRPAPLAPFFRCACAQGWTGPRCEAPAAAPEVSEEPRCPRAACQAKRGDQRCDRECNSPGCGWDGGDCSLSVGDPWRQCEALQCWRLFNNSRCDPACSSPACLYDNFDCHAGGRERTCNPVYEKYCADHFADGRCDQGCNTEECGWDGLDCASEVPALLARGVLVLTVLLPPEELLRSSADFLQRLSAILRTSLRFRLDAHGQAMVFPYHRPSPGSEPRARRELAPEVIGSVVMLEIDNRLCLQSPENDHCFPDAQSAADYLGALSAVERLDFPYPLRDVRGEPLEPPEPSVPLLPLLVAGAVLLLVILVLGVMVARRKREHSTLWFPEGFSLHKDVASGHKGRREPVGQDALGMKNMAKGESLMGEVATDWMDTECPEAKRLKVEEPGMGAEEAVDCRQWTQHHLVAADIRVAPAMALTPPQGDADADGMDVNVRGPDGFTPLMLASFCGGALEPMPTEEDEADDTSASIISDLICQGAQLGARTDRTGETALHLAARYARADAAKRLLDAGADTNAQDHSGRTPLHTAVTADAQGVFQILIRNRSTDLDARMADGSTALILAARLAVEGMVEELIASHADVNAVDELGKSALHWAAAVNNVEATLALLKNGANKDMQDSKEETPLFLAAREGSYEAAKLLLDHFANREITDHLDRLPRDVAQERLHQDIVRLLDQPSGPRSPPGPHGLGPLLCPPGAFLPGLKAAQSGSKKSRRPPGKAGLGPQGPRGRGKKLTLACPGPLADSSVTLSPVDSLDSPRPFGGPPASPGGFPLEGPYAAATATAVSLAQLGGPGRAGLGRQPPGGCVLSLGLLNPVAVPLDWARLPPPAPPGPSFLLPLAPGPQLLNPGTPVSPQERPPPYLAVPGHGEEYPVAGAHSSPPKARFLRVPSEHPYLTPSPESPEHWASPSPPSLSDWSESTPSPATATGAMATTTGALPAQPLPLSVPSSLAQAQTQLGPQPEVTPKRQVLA

## Control IgG1 (antibody)
[1]
  mean fluorescence intensity: 24.5 MFI
[2]
  mean fluorescence intensity: 24.2 MFI

## Control hybridoma supernatant (antibody)
[3]
  ELISA OD at 450 nm (mean): 0.019 OD
[4]
  ELISA OD at 450 nm (mean): 0.01 OD
[5]
  ELISA OD at 450 nm (mean): 0.019 OD

B1: anti-Notch 3 monoclonal antibody mAb 255A-71 (antibody, V domains shown)
VH: DVQLQESGPGLVKPSQSLSLTCSVTGYSITSGYYWNWIRQFPGNKLEWMGFISYDGSNNYNPSLKNRISITRDTSKNQFFLKLNSVTTEDTATFYCATLYYDYDGNYFDYWGQGTTLTVSS
VL: CDIQMTQTTSSLSASLGDRVTISCRTSQDISNYLNWYQQKPDGTVKLLIYYTSRLHSGVPSRFSGSGSGTDYSLTISNLEQEDIATYFCQQGNALPLTFGPGTKLELKR
notes: Mouse hybridoma mAb raised against Notch3-EGF/Fc
[6]
  binding result: no binding
[7]
  binding result: no binding

B2: anti-Notch 3 monoclonal antibody mAb 255A-77 (antibody, V domains shown)
VH: QVQLQQSGDDLVKPGASVKLSCKASGYTFTSYWINWIKQRPGQGLEWIGHIGPGSGSTYYNEIFKGKATLTVDTSSSTAYIQLSSLSSEDSAVYFCVLTRYFYAMDYWGQGTSVTVSS
VL: DIVMTQSPSSLAVTAGEKVTMRCKSSQSLLWSVNQNNYLSWYQQKQGQPPKLLIYGASIRESWVPDRFTGSGSGTDFTLTISNVHVEDLAVYYCQHNHGSFLPLTFGAGTKLELKR
notes: as for B1
[6]
  binding result: no binding
[7]
  binding result: no binding
